Consider 5 compounds from article PMC6471467, “Comparing Gly^11/DAla^11-Replacement vs. the in-Situ Neprilysin-Inhibition Approach on the Tumor-targeting Efficacy of the ^111In-SB3/^111In-SB4 Radiotracer Pair” (Molecules, 2019).

Values joined by “and” are separate entries in the source; they are usually repeats but may differ in a detail not shown here. Equal values may be shown once. Read-outs that look alike come from different tables or passages of the source. Peptide text beside a SMILES is read from it.

Data set [1] can be described thus: In vivo stability in peripheral mouse blood (radio-HPLC). Details: species or system mice. The following applies: blood 5 min pi; for Intact radiotracer in mouse blood, representative radiochromatogram, PA-coinjection: coinjection of 300 µg phosphoramidon (PA), HPLC system 2, single representative sample (Figure 3c,d); for Intact radiotracer in mouse blood, representative radiochromatogram: without PA-coinjection, HPLC system 2, single representative sample (Figure 3a,b); for Intact radiotracer in peripheral mouse blood: healthy male Swiss albino mice, iv 3 nmol peptide, without PA, radio-HPLC, mean ± sd, n = 3. Here is the method: For stability experiments (approved protocol # 1609, Prefecture of Attica), healthy male Swiss albino mice (30 ± 5 g, NCSR “Demokritos” Animal House Facility) were used. The radioligand, ^111In-SB3 or ^111In-SB4, was injected as a 100 μL bolus (11–22 MBq, 3 nmol total peptide) in the tail vein together with injection solution (100 µL; control) or with a phosphoramidon (PA)-solution (100 µL injection solution containing 300 µg PA). Animals were euthanized and blood (0.5–1 mL) was directly withdrawn from the heart and transferred in a pre-chilled EDTA-containing Eppendorf tube on ice. Blood samples were centrifuged for 10 min at 2000 g/4 °C and plasma was collected. After addition of an equal volume of ice-cold MeCN the mixture was centrifuged for 10 min at 15,000 g/4 °C. The supernatant was concentrated under a N2-flux at 40 °C to 0.05-0.1 mL, diluted with saline (0.4 mL), filtered through a 0.22 μm Millex GV filter (Millipore, Milford, USA) and analyzed by RP-HPLC. The Symmetry Shield RP18 (5 μm, 3.9 mm × 20 mm) column was eluted at a flow rate of 1.0 mL/min with the following linear gradient (system 2): 0% B at 0 min to 10% B in 10 min and then in 40 min to 30% B; A = 20 mM ammonium acetate and B = MeCN. The tR of the intact radiopeptide was determined by coinjection with the ^111In-SB3 or ^111In-SB4 reference in the HPLC.

A short description of data set [2]: Biodistribution in SCID mice bearing PC-3 xenografts. In kind it is in vivo. The conditions noted are these: female, mouse, pancreas, total radioactivity, average ± sd; for tissue uptake at 4 h: 4 h pi; for tissue uptake at 24 h: 24 h pi, n = 4, read-out: Pancreatic uptake, 24 h pi. Here is the method:
A suspension containing freshly harvested human PC-3 cells (≈150 μL of a ≈1.2 × 10^7 cells) was subcutaneously injected in the flanks of female SCID mice (15 ± 3 g, six weeks of age at the day of arrival, NCSR “Demokritos” Animal House Facility).
Animals were euthanized at 4 and 24 h pi and dissected; samples of blood, tumors and organs of interest were collected, weighed and measured for radioactivity in the gamma counter. Intestines and stomach were not emptied of their contents. Data was calculated as percent injected dose per gram tissue (%ID/g) with the aid of standard solutions and represent mean values±sd, n = 4.

The conditions of data set [3]: small library of ^99mTc-labeled analogs with acyclic tetraamine chelator; cited from earlier work. The text has this: Earlier work on the development of GRPR-antagonists generated a solid body of structure-activity relationships data, pinpointing at important factors for sustained in vivo action. […] Metabolic stability could be enhanced by suitable structural modifications, including DAla^11/Gly^11 in BBN-based or DAla^24/Gly^24 in GRP-based peptide ligands.

The target in a further data set is GRPR (Homo sapiens, UniProt P30550). Put plainly: biochemical.
Where [4] appears, read: iv, with phosphoramidon (PA), 300 µg co-injected (NEP-inhibition), coinjection of 300 µg PA, n = 4, read-out: Pancreatic uptake, 4 h pi, PA-coinjection.
[5] abbreviates: iv 10 pmol peptide, control, n = 4, read-out: Pancreatic uptake, 4 h pi.

Chain of GRPR (P30550 whole entry): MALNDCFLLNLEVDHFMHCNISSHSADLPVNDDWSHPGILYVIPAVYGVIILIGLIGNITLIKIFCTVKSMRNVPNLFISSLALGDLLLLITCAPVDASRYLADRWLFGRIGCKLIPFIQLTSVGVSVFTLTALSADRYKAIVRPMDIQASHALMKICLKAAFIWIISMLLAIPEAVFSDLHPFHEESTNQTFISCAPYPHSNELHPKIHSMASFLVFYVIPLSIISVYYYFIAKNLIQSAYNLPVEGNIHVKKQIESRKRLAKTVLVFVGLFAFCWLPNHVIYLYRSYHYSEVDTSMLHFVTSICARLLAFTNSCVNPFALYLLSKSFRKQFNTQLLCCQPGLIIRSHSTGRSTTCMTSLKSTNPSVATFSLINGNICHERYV
Procedure for GRPR: Human androgen-independent prostate adenocarcinoma PC-3 cells endogenously expressing the human GRPR (LGC Promochem, Teddington, UK) were used in the present study [24]. Cells were cultured in Roswell Park Memorial Institute (RPMI)-1640 medium, supplemented with 10% heat-inactivated fetal bovine serum (FBS), 100 U/mL penicillin and 100 µg/mL streptomycin, and kept in a controlled humidified atmosphere containing 5% CO2 at 37 °C. Passages were performed weekly using a trypsin/EDTA (0.05%/0.02% w/v) solution. All culture media were purchased from Gibco BRL, Life Technologies and supplements were provided by Biochrom KG Seromed.
For the assay, triplicates per concentration point (concentration range: 10^−13–10^−6 M) of each test peptide were incubated together with the radioligand (~40,000 cpm per assay tube, at a 50 pM concentration) in PC-3 cell-membrane homogenates in a total volume of 300 μL binding buffer (BB, 50 mM HEPES pH 7.4, 1% BSA, 5.5 mM MgCl2, 35 μM bacitracin) for 1 h at 22 °C in an Incubator-Orbital Shaker (MPM Instr. SrI, Italy). Binding was interrupted by ice-cold washing buffer (WB, 10 mM HEPES pH 7.4, 150 mM NaCl) and rapid filtration (Whatman GF/B filters presoaked in BB) on a Brandel Cell Harvester (Adi Hassel Ing. Büro, Munich, Germany). Filters were washed with ice-cold WB and counted in an automatic well-type gamma counter (NaI(Tl) 3´´-crystal, Cobra Packard Auto-Gamma 5000 series instrument). The half maximal inhibitory concentration (IC50) values were calculated using nonlinear regression according to a one-site model applying the PRISM 2 program (Graph Pad Software, San Diego, CA) and represent the mean±sd from three independent experiments performed in triplicate.

Turning to `CCNC(=O)[C@H](CC(C)C)NC(=O)[C@H](Cc1c[nH]cn1)NC(=O)[C@@H](C)NC(=O)[C@@H](NC(=O)[C@H](C)NC(=O)[C@H](Cc1c[nH]c2ccccc12)NC(=O)[C@H](CCC(N)=O)NC(=O)[C@@H](Cc1ccccc1)NC(=O)COCC(=O)Nc1ccc(CNC(=O)CN2CCN(CC(=O)O)CCN(CC(=O)O)CCN(CC(=O)O)CC2)cc1)C(C)C` [^111In-SB4, metal not drawn] (HELM PEPTIDE1{[O=C(O)CN1CCN(CC(=O)O)CCN(CC(=O)NCc2ccc(NC(=O)COCC(=O)[*:2])cc2)CCN(CC(=O)O)CC1].[dF].Q.W.A.V.[dA].H.L.[CCN[*:1]]}$$$$V2.0), in data set [1], the “Intact radiotracer in mouse blood, representative radiochromatogram, PA-coinjection” value is 99.7 % intact radiotracer; the “Intact radiotracer in mouse blood, representative radiochromatogram” value was found to be 77 % intact radiotracer; the “Intact radiotracer in peripheral mouse blood” value worked out at 80 ± 3 % intact. In addition, the tissue uptake at 4 h in data set [2] (setting [4]) was 4.9 ± 0.7 %ID/g. Further, the tissue uptake at 24 h in data set [2] (iv 10 pmol peptide) was found to be 0.1 %ID/g. The tissue uptake at 4 h in data set [2] (setting [5]) was 1.6 ± 0.8 %ID/g.
Regarding “^99mTc-[N4-p-aminomethylaniline-diglycolic acid-DPhe^6,DAla^11,Leu^13-NHEt]BBN(6-13)”, the “Metabolic stability, rank within the library” value in data set [3] was “highest metabolic stability”.
On to `CCNC(=O)[C@H](CC(C)C)NC(=O)[C@H](Cc1c[nH]cn1)NC(=O)[C@@H](C)NC(=O)[C@@H](NC(=O)[C@H](C)NC(=O)[C@H](Cc1c[nH]c2ccccc12)NC(=O)[C@H](CCC(N)=O)NC(=O)[C@@H](Cc1ccccc1)NC(=O)COCC(=O)Nc1ccc(CNC(=O)CN2CCN(CC(=O)O)CCN(CC(=O)O)CCN(CC(=O)O)CC2)cc1)C(C)C` [SB4, DOTA-p-aminomethylaniline-diglycolic acid-DPhe-Gln-Trp-Ala-Val-DAla-His- Leu-NHEt] (HELM PEPTIDE1{[O=C(O)CN1CCN(CC(=O)O)CCN(CC(=O)NCc2ccc(NC(=O)COCC(=O)[*:2])cc2)CCN(CC(=O)O)CC1].[dF].Q.W.A.V.[dA].H.L.[CCN[*:1]]}$$$$V2.0), for which, at GRPR, the IC50 was 11.2 nM and 10.7 nM.
On the same count and under the same terms, the result for `CCNC(=O)[C@H](CC(C)C)NC(=O)[C@H](Cc1c[nH]cn1)NC(=O)CNC(=O)[C@@H](NC(=O)[C@H](C)NC(=O)[C@H](Cc1c[nH]c2ccccc12)NC(=O)[C@H](CCC(N)=O)NC(=O)[C@@H](Cc1ccccc1)NC(=O)COCC(=O)Nc1ccc(CNC(=O)CN2CCN(CC(=O)O)CCN(CC(=O)O)CCN(CC(=O)O)CC2)cc1)C(C)C` [SB3] reads 4.6 ± 0.3 nM.
Turning to `CCNC(=O)[C@H](CC(C)C)NC(=O)[C@H](Cc1c[nH]cn1)NC(=O)CNC(=O)[C@@H](NC(=O)[C@H](C)NC(=O)[C@H](Cc1c[nH]c2ccccc12)NC(=O)[C@H](CCC(N)=O)NC(=O)[C@@H](Cc1ccccc1)NC(=O)COCC(=O)Nc1ccc(CNC(=O)CN2CCN(CC(=O)O)CCN(CC(=O)O)CCN(CC(=O)O)CC2)cc1)C(C)C` [^111In-SB3, metal not drawn], in data set [1], the “Intact radiotracer in mouse blood, representative radiochromatogram, PA-coinjection” value was 98.9 % intact radiotracer; the “Intact radiotracer in mouse blood, representative radiochromatogram” value is on record as 55 % intact radiotracer; the “Intact radiotracer in peripheral mouse blood” value stood at 56 ± 2 % intact. The tissue uptake at 4 h in data set [2] (setting [4]) was found to be 33.1 ± 6.2 %ID/g. For the same compound, in data set [2] (iv 10 pmol peptide), the tissue uptake at 24 h was found to be 0.6 ± 0.1 %ID/g. For the same compound, the tissue uptake at 4 h in data set [2] (setting [5]) was 3.5 ± 0.4 %ID/g.

As usually defined, the IC50 is the concentration at which inhibition is half-maximal. Higher therefore signals lower potency.
